The values below come from US20260242483A1.

The target in experiment [1] is human BTN3A as expressed on human cells (PBMC, Daudi, tumour cell lines, HUVEC, HEK293T WT) (human). Put plainly: cell-based or functional assay.
Experiment [2] has as its target cynomolgus BTN3A as expressed on cynomolgus PBMCs (cynomolgus monkey (Macaca fascicularis)). Briefly: flow cytometry on cynomolgus PBMCs.
Experiment [3] concerns the target human BTN3A as expressed on human cells (PBMC, Daudi, tumour cell lines, HUVEC, HEK293T WT) (human). Briefly: flow cytometry on Daudi lymphoma cells.
The target is the same in experiment [4]. Briefly: flow cytometry on human PBMCs.
Experiment [5] has as its target recombinant human BTN3A1-His (Sino Biological Cat. No. 15973-H08H) (human) (UniProt O00481). Put plainly: SPR Biacore multi-cycle kinetics; antibody captured on Protein A, BTN3A1-His analyte, 1:1 fit.

Sequence of recombinant human BTN3A1-His (Sino Biological Cat. No. 15973-H08H) (human) (O00481 30-254 limits assumed): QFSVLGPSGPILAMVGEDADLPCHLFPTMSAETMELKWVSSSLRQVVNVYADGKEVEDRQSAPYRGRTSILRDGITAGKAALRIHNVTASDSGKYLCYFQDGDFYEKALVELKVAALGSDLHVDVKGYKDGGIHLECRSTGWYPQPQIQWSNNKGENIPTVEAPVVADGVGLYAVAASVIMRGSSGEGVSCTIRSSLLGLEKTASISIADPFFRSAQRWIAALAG

For “Chimeric 20.1 (VH0/Vκ0) IgG4 (S241P, L248E) (antibody)”, in experiment [1], the Functional assay (AML resistant) (γδT cell-based, EC50, µg/mL) stood at 0.18 µg/mL; the Functional assay (AML sensitive) (γδT cell-based, EC50, µg/mL) was found to be 0.05 µg/mL; the Functional assay (Daudi) (γδT cell-based, EC50, µg/mL) was 0.02 µg/mL. The substance also gave an EC50 in experiment [2] of 4.06 µg/mL. In experiment [3], this substance registered an EC50 of 1.19 µg/mL. In addition, in experiment [4], the concentration for a half-maximal effect (EC50) came to 3.02 µg/mL. In addition, the Kd in experiment [5] came out at 0.234 nM.
